B1: C-terminal domain (CTD) of DNAJB6, WT sequence (residues 186–242 plus a starting Met) (domain or fragment)
chain: MGNFKSISTSTKMVNGRKITTKRIVENGQERVEVEEDGQLKSLTINGKEQLLRLDNK
notes: starting Met added before residue 186; numbers count on: full-length DNAJB6; also called WT CTD

Bounds are passed on as bounds.

For series [1], the target named is S100G-CTDβ1–4 (four β-strands of the DNAJB6 CTD, residues 187–231, grafted between the two EF-hands of human S100G) (UniProt O75190). The series is described as follows: cross-linking; 10 μM construct, BS3 amine-reactive crosslinker, 20 mM sodium phosphate, 0.2 mM EDTA (pH 8.0), SDS-PAGE with integration of band intensities and LC-MS/MS of excised bands; dimer to monomers; KD are lower bounds.

The target of series [2] is Aβ42 fibrils (amyloid-β peptide Aβ(M1-42), fibrillar form). Briefly: SPR; Aβ42 fibrils immobilised, construct injected (CTD at 2, 5 and 10 μM); 20 mM sodium phosphate, 0.2 mM EDTA, pH 8.0, 0.005% Tween-20. For orientation: SPR reads the build-up and loss of mass on a sensor chip optically.
Series [3] has the same target.
Series [4] has as its target S100G-CTDβ1–2 (β-strands 1 and 2 of the DNAJB6 CTD, residues 187–212, grafted between the two EF-hands of human S100G) (UniProt O75190). The series is described as follows: cross-linking; 10 μM construct, BS3 amine-reactive crosslinker, 20 mM sodium phosphate, 0.2 mM EDTA (pH 8.0), SDS-PAGE with integration of band intensities and LC-MS/MS of excised bands; dimer to monomers; KD are lower bounds.

In series [5] the target is S100G-CTDβ1–2STA (ST/A-substituted variant of S100G-CTDβ1–2) (UniProt O75190). The description is as above.
Series [6] addresses S100G-CTDβ1–4STA (ST/A-substituted variant of S100G-CTDβ1–4) (UniProt O75190). Described as above.
Series [7] deals with the molecule itself. Described as above.
Series [8] deals with the molecule itself. Briefly: cross-linking; 10 μM construct, BS3 amine-reactive crosslinker, 20 mM sodium phosphate, 0.2 mM EDTA (pH 8.0), SDS-PAGE with integration of band intensities and LC-MS/MS of excised bands; tetramer to dimers; KD is a lower bound.
Series [9] concerns the molecule itself. The series is described as follows: native MS; equimolar mixture of CTD and CTD STA ionised from 200 mM ammonium acetate, pH 6.8, source temperature 25 °C, gentle ionisation; also nonmixed samples (Fig. S3).
Series [10] deals with B1. The series is described as above. As to conditions: both partners purified.

Broadly, the Kd is the equilibrium constant for the complex coming apart. The term stoichiometry N denotes a count of units in the complex or per binding partner.

On to “S100G-CTDβ1–4 (four β-strands of the DNAJB6 CTD, residues 187–231, grafted between the two EF-hands of human S100G) (from UniProt O75190-2 187-231)”, for which the Kd in [1] is > 500 µM. In series [2], this molecule came in with a Ka of 1e+07 M⁻¹.
For “C-terminal domain (CTD) of DNAJB6, WT sequence (residues 186–242 plus a starting Met) (from UniProt O75190-2 186-241) (domain or fragment)”, the ThT fluorescence, reaction half time t1/2 of the aggregation of 3 μM Aβ42, CTD:Aβ42 M ratios from 0.05:1 to 1:1 in series [3] is 10 fold. The Ka in series [2] turned out to be 100000 M⁻¹.
As for “S100G-CTDβ1–2 (β-strands 1 and 2 of the DNAJB6 CTD, residues 187–212, grafted between the two EF-hands of human S100G) (from UniProt O75190-2 187-212)”, the Kd in [4] was > 60 µM. The molecule also registered a Ka in series [2] of 300000 M⁻¹.
Turning to “S100G-CTDβ1–2STA (ST/A-substituted variant of S100G-CTDβ1–2) (from UniProt O75190-2 187-212)”, the equilibrium dissociation constant (Kd) in [5] is > 1000 µM.
Turning to “S100G-CTDβ1–4STA (ST/A-substituted variant of S100G-CTDβ1–4) (from UniProt O75190-2 187-231)”, the Kd in [6] is > 1000 µM.
Consider B1, for which the figures for the Kd in series [7] and in series [8] were ≥ 30 µM and ≥ 2 µM, respectively. The “stoichiometry N” value is 4 in series [8] and 2 in [9].

B2: CTD STA (CTD with S190A + S192A + T193A + S194A + T195A in β1) (domain or fragment)
chain: MGNFKAIAAAAKMVNGRKITTKRIVENGQERVEVEEDGQLKSLTINGKEQLLRLDNK
notes: starting Met added before residue 186; numbers count on: full-length DNAJB6; also called S/T-A-substituted variant
For the molecule B2, the Kd in [7] was ≥ 600 µM. In addition, the “stoichiometry N” value in series [9] was 2. In [10], the binding result is recorded as “binds”.

Source of the values: PMC10641233, “The C-terminal domain of the antiamyloid chaperone DNAJB6 binds to amyloid-β peptide fibrils and inhibits secondary nucleation” (The Journal of Biological Chemistry, 2023).
